Patent US20030190634
Read-outs that look alike come from different tables or passages of the source.

Assays:
[1] = molecular target: Tth DNA ligase wild type (Thermus thermophilus) (UniProt P26996); conditions: initial ligation rate, 65 C
[2] = molecular target: Tth DNA ligase K294R K294R (Thermus thermophilus) (UniProt P26996); conditions: initial ligation rate, 65 C
[3] = molecular target: Thermus sp. AK16D DNA ligase (Thermus sp. AK16D) (UniProt Q9ZFY8); conditions: initial ligation rate, 65 C
[4] = molecular target: T1, T4 DNA ligase (Enterobacteria phage T4?) (UniProt P00970); conditions: initial ligation rate, 0.5 nM enzyme, 37 C
T1 sequence: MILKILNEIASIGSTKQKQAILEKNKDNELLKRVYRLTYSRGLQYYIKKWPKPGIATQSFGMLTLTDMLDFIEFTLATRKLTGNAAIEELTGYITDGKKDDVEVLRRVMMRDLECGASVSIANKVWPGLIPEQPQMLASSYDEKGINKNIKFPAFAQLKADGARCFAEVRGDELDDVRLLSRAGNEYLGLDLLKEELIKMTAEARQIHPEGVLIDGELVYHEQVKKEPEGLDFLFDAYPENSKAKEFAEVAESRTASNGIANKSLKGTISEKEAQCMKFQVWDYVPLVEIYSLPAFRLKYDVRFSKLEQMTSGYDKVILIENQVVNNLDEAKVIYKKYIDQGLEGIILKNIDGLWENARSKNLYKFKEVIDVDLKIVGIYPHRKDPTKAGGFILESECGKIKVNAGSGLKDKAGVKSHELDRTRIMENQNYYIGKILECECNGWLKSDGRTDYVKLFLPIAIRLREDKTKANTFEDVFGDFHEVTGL

[5] = molecular target: Aquifex sp. DNA ligase (Aquifex sp.) (UniProt O66880); conditions: initial ligation rate, 65 C
[6] = 12.5 nM enzyme, NAD+, 10 mM MgCl2

Chain of Thermus sp. AK16D DNA ligase (Thermus sp. AK16D) (Q9ZFY8 whole entry): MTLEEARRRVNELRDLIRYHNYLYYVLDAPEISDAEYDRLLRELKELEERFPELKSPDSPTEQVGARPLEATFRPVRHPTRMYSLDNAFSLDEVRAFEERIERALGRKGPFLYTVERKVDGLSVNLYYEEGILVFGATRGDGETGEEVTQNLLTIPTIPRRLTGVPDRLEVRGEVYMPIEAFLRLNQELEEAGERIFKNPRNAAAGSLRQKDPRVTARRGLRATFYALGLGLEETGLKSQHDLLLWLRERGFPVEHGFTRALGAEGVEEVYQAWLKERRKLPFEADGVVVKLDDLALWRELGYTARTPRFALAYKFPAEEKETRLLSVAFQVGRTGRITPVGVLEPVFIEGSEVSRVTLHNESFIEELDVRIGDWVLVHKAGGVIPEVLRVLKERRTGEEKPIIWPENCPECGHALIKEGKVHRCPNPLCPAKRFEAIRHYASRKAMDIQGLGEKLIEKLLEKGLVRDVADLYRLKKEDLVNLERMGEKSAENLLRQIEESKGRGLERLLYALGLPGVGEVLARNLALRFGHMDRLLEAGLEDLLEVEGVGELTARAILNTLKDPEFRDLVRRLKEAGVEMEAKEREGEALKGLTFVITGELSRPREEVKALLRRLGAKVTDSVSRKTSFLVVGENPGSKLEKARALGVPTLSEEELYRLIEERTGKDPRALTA
Chain of Tth DNA ligase K294R K294R (Thermus thermophilus) (P26996 whole entry K294R): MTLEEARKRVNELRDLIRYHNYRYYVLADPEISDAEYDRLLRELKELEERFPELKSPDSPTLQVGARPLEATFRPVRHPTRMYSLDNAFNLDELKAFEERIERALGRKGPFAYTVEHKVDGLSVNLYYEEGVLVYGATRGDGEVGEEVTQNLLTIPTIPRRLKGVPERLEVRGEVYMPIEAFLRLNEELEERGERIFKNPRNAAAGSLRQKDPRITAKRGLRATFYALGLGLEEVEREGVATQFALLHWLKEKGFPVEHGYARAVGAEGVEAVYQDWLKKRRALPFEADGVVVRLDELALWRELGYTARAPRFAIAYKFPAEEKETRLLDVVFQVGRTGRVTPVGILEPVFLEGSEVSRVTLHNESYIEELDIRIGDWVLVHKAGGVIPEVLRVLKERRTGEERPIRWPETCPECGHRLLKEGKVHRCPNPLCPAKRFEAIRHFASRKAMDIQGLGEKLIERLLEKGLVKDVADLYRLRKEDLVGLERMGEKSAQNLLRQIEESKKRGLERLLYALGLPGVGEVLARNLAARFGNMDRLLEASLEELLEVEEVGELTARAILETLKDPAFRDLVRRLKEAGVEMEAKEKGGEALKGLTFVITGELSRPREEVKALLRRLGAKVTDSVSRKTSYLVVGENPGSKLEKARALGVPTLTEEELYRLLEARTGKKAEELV
Chain of Tth DNA ligase wild type (Thermus thermophilus) (P26996 whole entry): as the sequence (P26996 whole entry K294R) above, with R294K counted along it
Chain of Aquifex sp. DNA ligase (Aquifex sp.) (O66880 whole entry): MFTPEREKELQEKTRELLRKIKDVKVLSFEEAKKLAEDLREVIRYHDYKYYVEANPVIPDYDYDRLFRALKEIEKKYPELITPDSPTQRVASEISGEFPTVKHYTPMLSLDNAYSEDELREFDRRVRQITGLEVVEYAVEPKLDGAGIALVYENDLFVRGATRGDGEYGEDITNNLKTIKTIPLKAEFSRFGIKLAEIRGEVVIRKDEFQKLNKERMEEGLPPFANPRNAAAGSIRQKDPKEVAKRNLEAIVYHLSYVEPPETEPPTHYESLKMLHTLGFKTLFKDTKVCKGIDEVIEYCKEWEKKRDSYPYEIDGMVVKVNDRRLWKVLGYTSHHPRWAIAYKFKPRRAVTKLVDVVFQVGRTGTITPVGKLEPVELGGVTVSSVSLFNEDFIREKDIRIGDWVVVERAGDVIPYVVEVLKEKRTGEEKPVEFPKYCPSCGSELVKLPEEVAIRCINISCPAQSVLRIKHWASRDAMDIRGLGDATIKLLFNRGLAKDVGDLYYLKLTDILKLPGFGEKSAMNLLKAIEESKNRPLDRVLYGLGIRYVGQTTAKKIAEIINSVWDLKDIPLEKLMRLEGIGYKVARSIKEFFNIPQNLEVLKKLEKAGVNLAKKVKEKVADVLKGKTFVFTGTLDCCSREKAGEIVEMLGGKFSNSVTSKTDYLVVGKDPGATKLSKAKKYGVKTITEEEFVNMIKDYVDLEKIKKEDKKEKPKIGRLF

nicked duplex, C-G match at 3'-end
activity (fmol/ (time unit not given)) ([1]; 1.25 nM enzyme as printed, NAD+, 10 mM MgCl2): 55 | activity (fmol/ (time unit not given)) [2, 6]: 150 | activity (fmol/ (time unit not given)) [3, 6]: 130 | activity (fmol/ (time unit not given)) ([4]; 10 mM MgCl2, 12.5 nM substrate): 140 | activity (fmol/ (time unit not given)) [5, 6]: 99

nicked duplex, T-G mismatch at 3'-end
activity (fmol/ (time unit not given)) ([1]; fidelity 840): 0.065 | activity (fmol/ (time unit not given)) ([2]; fidelity 5300): 0.029 | activity (fmol/ (time unit not given)) ([3]; fidelity 5200): 0.025 | activity (fmol/ (time unit not given)) ([4]; fidelity 50): 2.8 | activity (fmol/ (time unit not given)) ([5]; fidelity 3500): 0.029

nicked duplex, T-G mismatch at penultimate 3'-end
activity (fmol/ (time unit not given)) ([1]; fidelity 190): 0.29 | activity (fmol/ (time unit not given)) ([2]; fidelity 400): 0.38 | activity (fmol/ (time unit not given)) ([3]; fidelity 1100): 0.12 | activity (fmol/ (time unit not given)) ([4]; fidelity 19): 7.1 | activity (fmol/ (time unit not given)) ([5]; fidelity 380): 0.26
